This data set addresses microtubule (in vitro reconstituted, taxol-stabilised).

B1: HA-tagged wild-type p68 (HA-p68), immunopurified from SW480 cell lysates (protein)
chain: MSGYSSDRDRGRDRGFGAPRFGGSRAGPLSGKKFGNPGEKLVKKKWNLDELPKFEKNFYQEHPDLARRTAQEVETYRRSKEITVRGHNCPKPVLNFYEANFPANVMDVIARQNFTEPTAIQAQGWPVALSGLDMVGVAQTGSGKTLSYLLPAIVHINHQPFLERGDGPICLVLAPTRELAQQVQQVAAEYCRACRLKSTCIYGGAPKGPQIRDLERGVEICIATPGRLIDFLECGKTNLRRTTYLVLDEADRMLDMGFEPQIRKIVDQIRPDRQTLMWSATWPKEVRQLAEDFLKDYIHINIGALELSANHNILQIVDVCHDVEKDEKLIRLMEEIMSEKENKTIVFVETKRRCDELTRKMRRDGWPAMGIHGDKSQQERDWVLNEFKHGKAPILIATDVASRGLDVEDVKFVINYDYPNSSEDYIHRIGRTARSTKTGTAYTFFTPNNIKQVSDLISVLREANQAINPKLLQLVEDRGSGRSRGRGGMKDDRRDRYSAGKRGGFNTFRDRENYDRGYSSLLKRDFGAKTQNGVYSAANYTNGSFGSNFVSAGIQTSFRTGNPTGTYQNGYDSTQQYGSNVPNMHNGMNQQAYAYPATAAAPMIGYPMPTGYSQ
B1: the % of gliding microtubules (n = 50), p68/Ca^2+-CaM, ATP was 74.2%; the % of gliding microtubules (n = 50), p68/Ca^2+-CaM, no ATP stood at 5.79%; the “ATPase activity (inorganic phosphate hydrolyzed from ATP)” value is listed as “the protein demonstrated an even stronger microtubule stimulated ATPase activity”; the Maximum gliding speed, p68/Ca^2+-CaM, ATP was 0.52 µm/min. The protein further returned a Maximum gliding speed, p68/Ca^2+-CaM, no ATP of 0.01 µm/min; a Mean gliding speed, p68/Ca^2+-CaM, ATP of 0.16 µm/min; a Mean gliding speed, p68/Ca^2+-CaM, no ATP of 0 µm/min.

For the origin of these results see patent US11214624.
